Experimental data taken from US20140294977A1, “Radiation-Sterilized Biodegradable Drug Delivery Composition” (DURECT CORPORATION, priority 2011, published 2014).

Assay: Gamma-radiation stability of hGH:protamine powders and SAIB/BB/PLA suspensions by RPLC
Assay type: physicochemical
Conditions: after gamma irradiation at 15 kGy
Experimental: Aliquots of 3 mL each of the bulk hGH solution in buffer from BresaGen were transferred into 5 mL type-Hypak BD glass syringes and lyophilized using the lyophilization cycle provided in Table 1 (optimized for hGH) to fit the steps provided with an FTS lyophilizer, Dura Stop, MP Stoppering Tray Dryer, Stone Ridge, N.Y.
100 mg of BresaGen hGH powder was placed in a 15 mL wide-mouth glass jar. 5.5 mL of 25 mM NH4HCO3 (pH ˜7.5) solution was added and the compound was stirred for 30 min at room temperature, 400 rpm until it became clear. Then 1.02 mL of protamine sulfate solution (conc. 10 mg/mL) was slowly added to form a white precipitate. The resulting suspension was stirred for 30 min to complete the complexation reaction. 0.19 mL of 290 mM sucrose solution was then added while stirring at 400 rpm. When the solution was clear, 15.2 μL of 10% polysorbate 20 solution was added. In powders with methonine formulation, 1 wt %-35 wt % of methionine relative to the total protein weight was added to the complexed suspension. […]
Stability of the above formulations was determined using RPLC analysis. […]

## control hGH powder: lyophilized human growth hormone powder (BresaGen) without complex, used as control
  purity of hGH / impurity peaks in RPLC spectra (FIG. 1): showed an impurity peak around 8.15 min
